Test results as given in the supplement of paper PMC9112550, “Optimization of the antimicrobial peptide Bac7 by deep mutational scanning” (BMC Biology, 2022).

Test system: Escherichia coli TOP10
Assay: shrunken log2 fold change of peptide-encoding DNA abundance (4.5 h post-induction vs induction); higher = less antimicrobial activity (less host growth inhibition)
Settings: time post-induction: 4.5 h; library: site-saturation at positions 5, 18, 19, 20
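Further: peptides expressed intracellularly from a pBAD plasmid library in pooled LB shake-flask culture, induced with 0.3% L-arabinose, DNA abundance read by NGS, three biological replicates, DESeq2 with apeglm shrinkage.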

Sequence | shrunken log2 fold change
RRIRYRPPRLPRPRPRPLRCPRP | 0.0617
RRIRNRPPRLPRPRPRPPWIPRP | -0.0807
RRIRNRPPRLPRPRPRPIWHPRP | -0.356
RRIRERPPRLPRPRPRPSHDPRP | -0.118
RRIRDRPPRLPRPRPRPSETPRP | -0.0751
RRIRHRPPRLPRPRPRPRYQPRP | -1.18
RRIRGRPPRLPRPRPRPSQMPRP | 0.0878
RRIRIRPPRLPRPRPRPFILPRP | -0.275
RRIRFRPPRLPRPRPRPTKIPRP | 0.359
RRIRDRPPRLPRPRPRPIKLPRP | -0.213
RRIRLRPPRLPRPRPRPMVWPRP | 0.0457
RRIRYRPPRLPRPRPRPVVAPRP | -0.32
RRIRFRPPRLPRPRPRPYHRPRP | 0.045
RRIRARPPRLPRPRPRPKFNPRP | -0.129
RRIRTRPPRLPRPRPRPFYAPRP | -0.301
RRIRVRPPRLPRPRPRPDSSPRP | -0.0452
RRIRYRPPRLPRPRPRPMWHPRP | -0.156
RRIRTRPPRLPRPRPRPPTCPRP | 0.174
RRIRHRPPRLPRPRPRPRVSPRP | 0.106
RRIRTRPPRLPRPRPRPMDYPRP | -0.00965

Sequence | shrunken log2 fold change
RRIRCRPPRLPRPRPRPMYMPRP | -0.143
RRIRARPPRLPRPRPRPSKTPRP | 0.314
RRIRYRPPRLPRPRPRPKSIPRP | -0.0776
RRIRMRPPRLPRPRPRPQDQPRP | 0.228
RRIRVRPPRLPRPRPRPHSPPRP | -0.0205
RRIRERPPRLPRPRPRPEVFPRP | 0.0133
RRIRMRPPRLPRPRPRPPCNPRP | 0.0147
RRIRFRPPRLPRPRPRPKSVPRP | 0.0124
RRIRQRPPRLPRPRPRPFIVPRP | -0.136
RRIRHRPPRLPRPRPRPKLMPRP | 0.165
RRIRTRPPRLPRPRPRPDYYPRP | -0.356
RRIRSRPPRLPRPRPRPVAEPRP | 1.28
RRIRMRPPRLPRPRPRPQHRPRP | 0.0767
RRIRHRPPRLPRPRPRPDVSPRP | -0.198
RRIRMRPPRLPRPRPRPQRGPRP | 1.24
RRIRNRPPRLPRPRPRPDWRPRP | -0.158
RRIRSRPPRLPRPRPRPWVNPRP | -0.0336
RRIRCRPPRLPRPRPRPEITPRP | 0.0771
RRIRERPPRLPRPRPRPVLPPRP | -0.0942
RRIRERPPRLPRPRPRPRCLPRP | 0.0247

Sequence | shrunken log2 fold change
RRIRLRPPRLPRPRPRPTWDPRP | 0.183
RRIRERPPRLPRPRPRPHPFPRP | -0.235
RRIRHRPPRLPRPRPRPVCAPRP | 0.208
RRIRGRPPRLPRPRPRPYVQPRP | -0.122
RRIRHRPPRLPRPRPRPFKTPRP | -0.256
RRIRARPPRLPRPRPRPIFMPRP | 0.104
RRIRHRPPRLPRPRPRPHTSPRP | -0.0988
RRIRCRPPRLPRPRPRPDGCPRP | -0.0861
RRIRYRPPRLPRPRPRPGFKPRP | -0.579
RRIRPRPPRLPRPRPRPCKTPRP | 0.106
RRIRNRPPRLPRPRPRPNHQPRP | -0.241
RRIRNRPPRLPRPRPRPCLDPRP | -0.0122
RRIRERPPRLPRPRPRPTELPRP | -0.577
RRIRFRPPRLPRPRPRPLHEPRP | 0.0931
RRIRGRPPRLPRPRPRPNKRPRP | 0.26
RRIRERPPRLPRPRPRPLEFPRP | -0.542
RRIRHRPPRLPRPRPRPWLSPRP | -0.0373
RRIRSRPPRLPRPRPRPEPCPRP | 0.108
RRIRTRPPRLPRPRPRPAVFPRP | 0.271
RRIRCRPPRLPRPRPRPNSLPRP | -0.0801
